A short description of this data set: label from the status in PepcDB records.
Regarding “MGAKGKFWILTMVVAISGLSQGVLLPLIAIILEERGISAGINGFHATGIYLGVLLISPFIEAPLHKYGYKPIILVGGGLVAVSILAFPIWFNLYFWFILRLLIGVGDHMLHFSSQTWIGAMSDPSKRGRNMAIYGLFFSLGFAIGPQLVNLAEINANLPFFLSGILVLIAWGLVWFVRNDFVGEKAVIRKISFWGSLKRFSDVFKLAWVAMIPPFLYGILETGLNATFPVVGLRDGLDTMMIAMVISSFSVGTIIFQVPIGIVSDKFGRGKVLPLLTGAGAVVFVLTAFVKIPVLYVVFFFVLGILLGSLYSLGLSYMTDLTPLELLPAGNILVGMCFSLGSIIGPSATGMMIGIFGNQIFYFVVAGILVLGCLLLIFGARKDALEKKMKN”, the protein production entry was “failed”.
For the sequence “MGAMAEIQFIRGINEEVVPDVRLTRARDGSSGQAMFYFDNPKIVQEGNLEVTGMYMVDEEGEIVTRDVNAKFINGQPVAIEATYTMRSPQEWDRFIRFMDRYAASHGLGFQKSENS”, the protein production result is reported as “failed”.
With “MGCAGSTQSQADGSVKKIRKPKPWKHTQPITKAELMKLREEFWDTAPHYGGRKEIWDALRAAAEADISLAQAIVDSAGVIVQNTDLTVCYDERGAKYELPKYVLSEPTNLEEEN” the entry was “failed”.
Consider “MGCFASRPNDTGGNRRKPTSIGDVSVYVPGLRIPKPVEFSQSLGDQLPKTLVERLTALRTRIVVMANQEGPTITRTRRKTQHGGSTLADLHHALEDYIPVLLGLTKDGSHLQFKVQFNWVNQEDEEEETAMSNVWYEILSVLHLMAMLQMSQANLLLLPRGSSDGYHPKISEENRRASIDIFLKAAGYLDCAVKHVLPHFSTEQRRSLPIDLAEGALRALCLQALGQGVDIQLGMAIDSAKATLAVKRRLSCEMVKYWQQAQDNLMNLPLANGWGEKHMLFVKWKYVEAKAAAYYYHGLILDEGNTEKSHGMAVAALQAADECLKESKKASEAFNTSSPTSRTPSLFGTMKYLSEKIPKETSSKVRINRDLYSYEKIMETAPTLPDFALALKPDEYQLPSVDASWSEASLRTKNTSNHI”, for which the protein production entry is “not failed”.
As to “MGCGLRKLEDPDESSPGKIFSTLKRPQVETKTEFAYEYALLDFTLQASTNPDVIKINSVLDIVAKVEDYYLKGYVVGAIHPVIQPVGQRKHLPASHLYRAVLSRLKLSPKHSAAGGQRRARLVMEECPLTCEAQANDAAKELMDKINAAAKRGMKFVGLVSQCYLPSMHCNGASHDGVAESGLHVRQDSQDNCKGWNEGALGGHLSESGVEEEPQHESGQHQTERNSSPSYANPKRGEAPDGKLYMVFNAFEEDAASWAYQEGVLSMKVTRKGAVISALDANWLELTTFYYKQGFSLIDSFVCWETPKVAKLEAFQLSVSDKLPKGKQKYSFQSLSGIPASGLA”, the protein production entry is “not failed”.
For the sequence “MGCICFKSWRRSSSSPSITSTVIDDLENVREYDADDDGGHYPLIFREFSLEQLRIATDGFSAGNIVSEHNDSVPNIVYKGKLGDGRRIAVKRFQRLSWPDPFEFINEAQAVGRLRSEHMANLIGCCCDDNERLLVAEYMPNGTLAKHLFHWEKRPMKWEMRLKVALHTARALEYCNDKGIDLYHDLNPYRIMFDKTGIPKLSCFGLMKNSHEGKIYSTNLAFAPPEYLRLGTVIAESVTFSFGTLLLDLMSGRHIPPNHALDLFRGKNYLVLMDSALDGQFSDEDRTELIHVASRCFKTEPEERPSIKFLKATLSRLQKRAKLCPINVKRPMSPPSKNLPEKTKPATESLKLTPFGDACSRADLSSIHELLEKLGYEEDNGVGNEFSFQMWTGEMQENMDYKKHGDAAFLAKDFDTAIEFYTEFMTGAPTVSPTVLARRCLCYLMTEMFSEALSDAMQAQVASPEWPIPLYLQAACLFKLEMEAEAKEALRHGSALEAY”, the protein production entry was “failed”.
For the sequence “MGCLYSKGNVHFSIDDEIYDIKETRKQQQKEKEKEEEEKKLRPSSTPKVEHTWPSKLELSLQHLSQKTQNARKIQAWWRGTLVRRSLLRAALSAWIIQSWWRKILAKRQEKNRLIILHLMAQETRACVLIQSWVRMLKIRQNYCRLCYATRVIQASWRWYNCRTRGFFQGSYELVGNKLRLRLDIFLGSQVCRISDCISLPIKN”, the protein production entry is “failed”.
Then “MGCRATQRESVGFADKIRYTERRFISVFGVPLLIQLICQAPQRAQELEQIAARWQLQASDDSPFALVLSEERLELRKLDEPKLGAIYVDWVEGAVAHRRKFGGGKGQSIAKAAGLNKGVTPVVLDATAGLGRDAFVLASLGCRVQMVERHPVVAALLEDGLQRAKQDDEIGAWVSERISLLHASSHDALQQLASDPNFTSPDVVYLDPMYPHPENKKKTALVKKEMRVFQSLVGADNDADALLEPALQLAQKRVVVKRPDYAPWLGNRKPSMAMETKKNRFDVYVIAAMSGE”, with “failed”.
As for “MGDEDLIELKFRLADGTDIGPSKYSQFMTVASLKEKIIAQWPKDKENAPKMINEVKLINGGKILENNKTLSEARSLITIGELPGIVTTMHVVLRPPLFEKKKEKLQNDPPRKSHCVCCIL”, the protein production entry is on record as “failed”.
Turning to “MGDIEGINIQSMASEIKKLRHKIETLEQQNSDLEIALTTAVEHGDAIESELFSTNDRLRGEVRERVIAERRLSKVLTVVSQQKDDLEVLVQTITEHSDEIDTQWLSRYSEVEALARLDPLTSIANRRMLDSALEQEWTRSLRSGSPLSVAMCDLDLFKAYNDRYGHNRGDQVLIAFAEILRGCSRRPPDLPARVGGEEFLILFPETDLAGARQVAEAIRLALWTLAIPHADSPHGRVTVSIGLACVFPRPEGDPADLIAQADFRLYEAKAHNRNTVRA”, the protein production entry is on record as “failed”.
On to “MGDKEESKKFSANLNGTEIAITYVYKGDKVLKQSSETKIQFASIGATTKEDAAKTLEPLSAKYKNIAGVEEKLTYTDTYAQENVTIDMEKVDFKALQGISGINVSAEDAKKGITMAQMELVMKAAGFKEVKLEHHHHHH”, for which the protein production result was “not failed”.
“MGETTVGHVAGEVVRALYGAGYMESTIGQYRKSIRALERYAGGPDAVYTRGLGAGFAASTFSERTGGFSRQRWFDYGRLARLCDSYLRSGSVDLGKWRRSRLAEPVVPGLAVVMERWEAYLAGSGLASATVGHYRRMAGLFLTWLESHGVVSLDGSDGSHVLGFLAGLRSRWSESSMRHAASDLRPLFRWLGRDDLADAIGLAGIRRTHAIAGTLPDDEHRRLLEACASRSVPSRDAAITLLSLTCGLRACDVIGLRIADVDWDSMSIGLVQRKTGNPLTVPMTGPLAARLASWLLDERPATDDDRVFVRYKAPHVALRGHSSVYEAISRVMRHAGLGRRGGSRLLRRNAATRMLEAATPLPTISAVLGHADPDSTRVYMATHRGGMLACVLPVPEGGSS”: the protein production result was “failed”.
Then “MGEYYHATVNGVVEYGAFVDLSEHVSGLIHESTYSGDPDLAVDDDVIVHLSAVRDNGDLSFEFVDPEEYRTEQRSHAYERTTADAVGLEHHHHHH”, with “not failed”.
In the case of “MGFADFFKNFKINKLRTAPSKEEQPSHWVKCPKCYALMYHKEVFSKYSVCLKCHYHFRMKAAERIEFLCDVGSFEEFDKHLRPNDPLNFVDKESYKQRIKKYEKRTNRPSSVISGEAKINRMPLQIVVFDFSFMGGSLGSVEGEKIVRAINRAVAKREALLIVSASGGARMQESTYSLMQMAKTSAALNRLSEAKLPFISLLSDPTYGGVSASFAFLGDLIIAEPGAMIGFAGPRVIKQTIGADLPEGFQTAEFLLEHGLIDMIVHRKDLKKTLSDLIAMMTHKTSKIF”, the protein production result is given as “failed”.
As for “MGFIMEFAENLVLRLMENPEERDRKAREHIYEMHERCKKIKEMWALPIRPYGFWTFERHNAQLRWDPQISQVAGRRDPYDDLLEDNYTPPSSSSSSSD”, the protein production entry is “failed”.
“MGFLDALMGNASEVDLGKLAAELSPILGDNEELQLAYKMVRDLFVFTSKRLILIDKQGVTGKKVSYHSIPYKAIVHFQVETAGTFDMDAELKLWISGQHEPLVKELKRGTDVVGIQKTIARYALG”: the protein production result was “not failed”.
Then “MGFLEAYKSFWRNYVNFSGRAPRSAYWYVVLWNVIIFVILYALAFIFGISAIMEAAMGGTGMAGGGGAIVLVIILWLYLLAALLPTISLMVRRLHDSGKSGFFVLLSLIPFAGGIIMLIFMCLESDGPNQYGDGDIDSKFDF”, with “failed”; and “MGFLESFVSFIVYLASTCGYVGIFILNMLEYACLPFPSEIVLPAIGASVASGKYSMIYALPISVIGGVVGTLISYSVGMYAGKKVISFAKRKHKKSKSIFEKIDRLFSRYGKITVFLARLLPFTRTYISLFAGAEKVNKIMFVIFSALGITIMDSFYLLLGYFAYDNKSFIEKALRHYSIGLIIIIVIAIFSYYIYKNLKLKKLKKEN”, with “failed”.
Then “MGFLHKLWDETVAGPTPDNGLGKLRKHDSLSTVRSSPPSLSSDQVTRSIMVTKGNNNVRGLRKLKMDPDSPTCSSSNPGTPLTPGTPCYALGPFTAGKIPSSGEDDAASLTTYEWIVINALDR”, with “failed”.
For “MGFYGGGSMASGRPESTGIDSLGIGKILAVYIKDNENLAIDEDKLQLTAELIRVFSASPGRDIVSQVNEDGGGSFSLSLDLQQFKKISDIENFFINLEDNPKGVIPCMNAAVHKVLFDQWETNEFENVMKINVRLHNYPESSISLKNLRAAYIGKLVTVHGTVVKVSTVKPLVTQMAFDCGKCKTGITREFTDGKFSPPLKCDSHGCKSKTFTPIRSSAQTIDFQKIRVQELQKPEDHEEGRVPRTVECELMEDLVDICIPGDVVTVTGIIGVINNYMDIGGGKSKTKNQGFYYLFIEAVSVKNTKRQSAFENSEDSSSSAQTADVGDLYSFSQRDLEFIVKFKEEYGSDTFRRILHSVCPSIYGHEIVKAGITLSLFGGVRKHSMDRNKVPVRGDIHVIIVGDPGLGKSQLLQAAAAISPRGIYVCGNATTRAGLTVAVVKDSMTNDYAFEAGAMVLADGGLCCIDEFDKMTTEHQALLEAMEQQCVSVAKAGLVASLSARTSVIAAANPVGGHYNRAKTVNENLKMSAALLSRFDLVFILLDKPDELLDKQVSEHIMSHHRMLGMQTCMQKGILYFQDCGWTLRKMTTFLRFLANCLGNIFPMHGILMSKDAGEIIQKFYLKLRDHNTSADSTPITARQLESLVRLAQARARVDLREEITVQDAMDVVEIMKESLYDKLIDEHGVVDFGRSGGMSQQKEAKRFLSALDKQSELQQKDCFSVSEMYSLADRIGLRVPDIDTFLENLNIAGYLLKKGPKTYQVLSSSYSRSQSSRSR”, the protein production entry was “failed”.
Then “MGGDSVAIFTADMSVSGELRNDIELHLRRGIESDALRLVYLPEVDLRTGDIVGTEALVRWQHPTRGLLAPGCFIPVAESINLAGELDRWVLRRACNEFSEWQSAGLGHDALLRINVSAGQLVTGGFVDFVADTIGQHGLDASSVCLEITENVVVQDLHTARATLARLKEVGVHIAIDDFGTGYSAISLLQTLPIDTLKIDKTFVRQLGTNTSDLVIVRGIMTLAEGFQLDVVAEGVETEAAARILLDQRCYRAQGFLFSRPVPGEAMRHMLSARRLPPTCILEHHHHHH”, with “failed”.
With “MGGITMTAVVSNRDKINFHEVADHYHSNKIIFGIKFLKNWALERLASCAPVPSWRAKLHKMRGVNIGENVYIGYDVIFDRIHPEMITVGDYAEIGDRCILSAHSRGSLTTRQAYPRSIAPIKIGRGVSVNPGCIITQGVEIGDNSIIGVGSVVSRNISPNSLALGYPAKVIKKLDGLEHHHHHH”, the protein production result is “not failed”.
With “MGGITMTAVVSNRDKINFHEVADHYHSNKIIFGIKFLKNWALERLASCAPVPSWRAKLHKMRGVNIGENVYIGYDVIFDRIHPEMITVGDYAEIGDRCILSAHSRGSLTTRQAYPRSIAPIKIGRGVSVNPGCIITQGVEIGDNSIIGVGSVVSRNISPNSLALGYPAKVIKKLDGVGELQTLEHHHHHH” the entry was “failed”; with “MGGKMRLLPIRKISRQSKRLALFLTFCAGYVDAYTFIVRGNTLVAGQTGNVVFLSVELIKNNVSDVRDKVLTLLAFMMGVFLLTIYKEKLRIVKKP”, “failed”.

(Values after a protein production outcome set (Wang et al. 2014).)
